The values below come from the nanobody polyreactivity screen of Harvey et al. (2022).

A short description of this data set: yeast display, Sf9 membrane polyspecificity reagent, FACS + sequencing; frameworks hold sequencing errors. The method, boiled down: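 Nanobodies from a synthetic yeast display library (Saccharomyces cerevisiae BJ5465), induced 36–48 hours with galactose, were stained 1 hour at 4 °C with 10% biotinylated, detergent-solubilized Sf9 membrane reagent, enriched on streptavidin microbeads, then FACS-sorted. Anti-HA (expression) and streptavidin (reagent binding) fluorescence set low and high (top ~1%) gates. Polyreactivity labels come from the gate of origin. Genes were colony-PCR amplified, MiSeq 2 × 250 sequenced and filtered by CDR length.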
As for “QVQLVESGGGLVQAGGSLRLSCAASGSTFAIDAMGWDRQAPGQDRELVASISGGSTNYADSVKGRVTISRDKAKNTVDLQRNSLKPEDTAVYYCAARGALQHWYRYDYWGQGTQGTVSS”, the “polyreactivity (PSR sort gate)” value is recorded as “low polyreactivity”.

On to “QVQLVESGGGLVQAGGSLRLSCAASGSTFAINARGWYRQAPGKERELVAAISSSGSTNYADSVKGRFTISRDNAKITVYLQMNSLKPEDTAVYYCAATGYRVYGFEFGYWGQGTQVTVSS”, for which the “polyreactivity (PSR sort gate)” value was “low polyreactivity”.

For “QVQLVESGGGLVQAGGSLRLSCAASGSTFAKNAMGWYRQAPGKERELVAAISRGGNTYYADSVKGRFTISRDNAKNTVYLHMNSLKPEDTAVYYCAKLPYTRTYLGSLYDYWGQGTQVTVSS”, the “polyreactivity (PSR sort gate)” value is “high polyreactivity”.

For “QVQLVESGGGLVQAGGSLRLSCAASGSTFAKYAMGWYRQAPGKERELVAVITSGGSTYYADSVKGRFTISRDNAKNTVYLQMNSLKPEDTAVYYCAAAVRAWARRYDYWGQGTQVTVSS”, the “polyreactivity (PSR sort gate)” value is reported as “high polyreactivity”.

As to “QVQLVESGGGLVQAGGSLRLSCAASGSTFALNAMGWYRQAPGKERELVADINYIGDSTYYADSVKGRFTISRDNAKNTVYLLMNSLKPEDTAVYYCAAKSIIRPYAPRRDDMDYWGQGTQVTVSS”, the “polyreactivity (PSR sort gate)” value is listed as “low polyreactivity”.

For the sequence “QVQLVESGGGLVQAGGSLRLSCAASGSTFAPNAMGWYRQAPGKEREFVATISASGGYTYYADSVKGRFTISRDNAKNTVYLQMNSLKPEDTAVYYCYAVWRVGRQLSQAKIPYDYWGQGTQVTVSS”, the “polyreactivity (PSR sort gate)” value is recorded as “low polyreactivity”.

Take “QVQLVESGGGLVQAGGSLRLSCAASGSTFAPNAMGWYRQAPGKERELVAAISSGGDSTNYADSVKGRFTISRDNAKNTVYLQMNSLKPEDTAVYYCAHGYWFVAYDYWGQGTQVTVSS”: the “polyreactivity (PSR sort gate)” value is recorded as “low polyreactivity”.

As for “QVQLVESGGGLVQAGGSLRLSCAASGSTFAPNAMGWYRQAPGKERELVAVITRSVGSTYYADSVKGRFTISRDNSKNTVYLKMNSLKPEDTAVYFCAADYLRQDDYVALDYWGQGTQVTVSS”, the “polyreactivity (PSR sort gate)” value was “low polyreactivity”.

As for “QVQLVESGGGLVQAGGSLRLSCAASGSTFAQNAMGWYILAPGKERELVAAISRRGTITNYADSVKGRFTISRDNEKITVYLQMYSLKPEDTAVYYCATRSWLLGIQGGYWGQGTQVTVSS”, the “polyreactivity (PSR sort gate)” value is “high polyreactivity”.

With “QVQLVESGGGLVQAGGSLRLSCAASGSTFARNAMGWYRQAPGKEREFVATISSSGGRTYYADSVKGRFTISRDIAKNTVYLQMNSLNPEDTAVYYCNKALRTYPLFYYWGQGTQVTVSS”, the “polyreactivity (PSR sort gate)” value is “high polyreactivity”.

Regarding “QVQLVESGGGLVQAGGSLRLSCAASGSTFARNVMGWYRQAPGKERELVAAISWRGGRTYYADSVKGRFTISRDNAKNTVYLQMNSLKPEDTAVYYCAAGRSFRGSYWYEYWGQGTKVTVSS”, the “polyreactivity (PSR sort gate)” value was “high polyreactivity”.

“QVQLVESGGGLVQAGGSLRLSCAASGSTFARYAMGWYRQAPGKERELVAAITWSGGSTYYADSVKGRFTISRDNAKNTVYLQMNSLKPEDTAVYYCAARRRVGYYWGQGTQVTVSS”: the “polyreactivity (PSR sort gate)” value is recorded as “high polyreactivity”.

With “QVQLVESGGGLVQAGGSLRLSCAASGSTFASYAMGWYRQAPGKERELVAAISSSGARTYYADSVKGRFTISRDNAKNTVYLQMNSLKPEDTAVYYCATDSKITETSLRYDYWGQGTQVTVSS”, the “polyreactivity (PSR sort gate)” value is “high polyreactivity”.

Consider “QVQLVESGGGLVQAGGSLRLSCAASGSTFATYAMGWYRQAPGKERELVAAITRSGGITYYADSVKGRFTISRDNAKNTVYLQMNSLKPEDNAVYYCAKQYKWYGSRFYYWGQGTQVTVSS”, for which the “polyreactivity (PSR sort gate)” value is given as “high polyreactivity”.

Consider “QVQLVESGGGLVQAGGSLRLSCAASGSTFATYAMGWYRQAPGKERELVAVITLGGRTYYADSVKGRFTISRDNAKNTVYLQMNSLKPEDTAVYYCAAKAYTYYARIGFDYWGQGTQVTVSS”, for which the “polyreactivity (PSR sort gate)” value is reported as “high polyreactivity”.

For “QVQLVESGGGLVQAGGSLRLSCAASGSTFATYTMGWYRQAPGKERELVAAITRGSNTYYADSVKGRFTISRDNAKNTVDLQMNSLKPEHTAVYYCAAGYSGYRKYNSWGQGTQVTVSS”, the “polyreactivity (PSR sort gate)” value is reported as “high polyreactivity”.

As to “QVQLVESGGGLVQAGGSLRLSCAASGSTFAVIVMGWYRQAPGKERELVATITYRDGRTYYADSVKGRFTISRDNAKNTVYLQMNSLKPEDTAVYYCAADDEYKQEAEMDSWGQGTQVTVSS”, the “polyreactivity (PSR sort gate)” value is reported as “low polyreactivity”.

Turning to “QVQLVESGGGLVQAGGSLRLSCAASGSTFAVNAMGWYRQAPGKERELVAAITGSGGSTYYADSVKGRFTISRDNAKNTVYLQMNSLKPEDTAVYYCAAYRRYGYYYWGQGTQVTVSS”, the “polyreactivity (PSR sort gate)” value was “low polyreactivity”.

Regarding “QVQLVESGGGLVQAGGSLRLSCAASGSTFAVNVMGWYRQAPGKERELVATITYRDGRTYYADSVKGRFTISRDIAKYTVFLQMNSLKPEDTAVYYCAADDEYTQEAEMDSWGQGTQVTVSS”, the “polyreactivity (PSR sort gate)” value was “low polyreactivity”.

Take “QVQLVESGGGLVQAGGSLRLSCAASGSTFAVNVMGWYRQAPGKERELVATITYRDGRTYYADSVKGRFTISRDNAKNTVYLQMNSLKPEDTAVYYCAADDEYKQEAEMDSWGQGTQVTVSS”: the “polyreactivity (PSR sort gate)” value is on record as “low polyreactivity”.

On to “QVQLVESGGGLVQAGGSLRLSCAASGSTFAVYAMGWSRKAPGKERELVATIRWSAGRTYYADSVKGRFTISRDNAKNTVYLQMNSLKPEDTAVYYCAARTWGQSTYGQGLDYWGQGTQVTVSS”, for which the “polyreactivity (PSR sort gate)” value is on record as “high polyreactivity”.

Turning to “QVQLVESGGGLVQAGGSLRLSCAASGSTFAVYAMGWYRQAPGKERELVAAITRGDRTYYADSVKGRFTISRDNAKNTVYLQMNSLKPEDTAVYYCAAGYYRLWVRYDYWGQGTQVTVSS”, the “polyreactivity (PSR sort gate)” value was “low polyreactivity”.

On to “QVQLVESGGGLVQAGGSLRLSCAASGSTFAVYAMGWYRQAPGKVRELVAAMRYSGGSTYADSVKGRFTISRDNAKNTVYLQMNSLKPEDTAVYYCAAYVYSLGGEYGYWGQGTHVTVSS”, for which the “polyreactivity (PSR sort gate)” value is “high polyreactivity”.

Regarding “QVQLVESGGGLVQAGGSLRLSCAASGSTFAVYTMGWYRQAPGKERELSTSYADSVKGRFTISRDNAKNTVYLQMNSLKPEDTAVYYCNRDFYEFDSNSYRFDYWGQGTQVTVSS”, the “polyreactivity (PSR sort gate)” value was “low polyreactivity”.

Consider “QVQLVESGGGLVQAGGSLRLSCAASGSTFAWNAMGWDRQAPGKERELVAAISKSGGSTYYADSVKGRFTISRDNAKNTVYLQMNSLKPEDTAVYYCAASGTVYARVRYYYWGQGTQVTVSS”, for which the “polyreactivity (PSR sort gate)” value is given as “high polyreactivity”.

As to “QVQLVESGGGLVQAGGSLRLSCAASGSTFAWYAMGWYRQAPGKERELVAGIWNTGRTYYADSVKGRFTISRDNAKNTVYLLMHSLKPEDTAVYYCAALYNSPNVTYYYWGQGTQVTVSS”, the “polyreactivity (PSR sort gate)” value is “high polyreactivity”.

Consider “QVQLVESGGGLVQAGGSLRLSCAASGSTFAWYAMGWYRTAPGKERELVAAISRTGRTYYADSVKGRFTMSRDNAKNTVYLQMNSLKPEDTAVYYCAARIERFYRDQRYDYWGQGTQVTVSS”, for which the “polyreactivity (PSR sort gate)” value is listed as “high polyreactivity”.

As for “QVQLVESGGGLVQAGGSLRLSCAASGSTFAYNDMGWYRQAPGKERDLVADIRYGGNTNYADSVKGRFTISRDNAKNTDYFQMNSLKPVDTSVYYCATDGYRSDVYHPDYRYDYWGQCTQVTVSS”, the “polyreactivity (PSR sort gate)” value was “low polyreactivity”.

Consider “QVQLVESGGGLVQAGGSLRLSCAASGSTFAYNTMGWYRQAPGKDRELVAAISQRGGSTYADSVKGRFTISRDNAKNTVYLQMNSLKPEDNAVYYCAADGYTYKFDYWGQGTQVTVSS”, for which the “polyreactivity (PSR sort gate)” value is on record as “low polyreactivity”.

As to “QVQLVESGGGLVQAGGSLRLSCAASGSTFAYYAMGWYRPAPGKERELVAVISVRGGSTYYAESVKGRFTISRDNAKNTVYLQMNSLKPEDTAVYYCAADTFAGYYYWGQGTQVTVSS”, the “polyreactivity (PSR sort gate)” value is recorded as “high polyreactivity”.

Turning to “QVQLVESGGGLVQAGGSLRLSCAASGSTFAYYAMGWYRPAPGTERELVAAISKSGGSTYYADSVKGRFTISRDNAKNTFYIQMISLKPEDTAVYYCAAGKFRYRSRFDFWGQGTQVTVSS”, the “polyreactivity (PSR sort gate)” value is reported as “high polyreactivity”.

For “QVQLVESGGGLVQAGGSLRLSCAASGSTFAYYAMGWYRPAPGTERELVAAISSGGSTYYADSVKGRFTISRDNAKNTVYLQMNSLKPEDTAVYYCAADAVKASVSYIVPYAAYDYWGQGTQVTVSS”, the “polyreactivity (PSR sort gate)” value was “low polyreactivity”.

Turning to “QVQLVESGGGLVQAGGSLRLSCAASGSTFAYYAMGWYRQAPGKEREFVAVINWRGGSTYYADSVKGRFTISRDNAKNTVYLQMNSLKQEDTAVYYCNGRSGGYYYGFDYWGQGTQVTVSS”, the “polyreactivity (PSR sort gate)” value was “low polyreactivity”.

With “QVQLVESGGGLVQAGGSLRLSCAASGSTFAYYAMGWYRQAPGKERELVAAISVSGGRTYYADSVKGRFTISRDNAKNTVYLQMNSLKPEDTAVYYCAKRFIYGRYNYWGQGTQVTVSS”, the “polyreactivity (PSR sort gate)” value was “high polyreactivity”.

In the case of “QVQLVESGGGLVQAGGSLRLSCAASGSTFAYYAMGWYRQAPGKERELVAAITIDGRTSYADSVKGRFTISRDNAKNTVYLQMNSLKAEDTAVYYCAADSSAWLYDYWGQGTQVTVSS”, the “polyreactivity (PSR sort gate)” value is “low polyreactivity”.

With “QVQLVESGGGLVQAGGSLRLSCAASGSTFAYYAMGWYRQAPGKERELVAGISGSGGSTYYADSVKGRFTISRDNAKNTVYLQLNSLKPEDTAVYYCAVVQRSKRTYPWYDYWGQGTQVTVSS”, the “polyreactivity (PSR sort gate)” value is “low polyreactivity”.

Consider “QVQLVESGGGLVQAGGSLRLSCAASGSTFAYYAMGWYRQAPGKERELVASISWRGGSTYYAESVKGRFTISRDNAKNTVYLQMNSLKPEDTAVYYCAAGRFYTWSRSQEYDYWGQGTQVTVSS”, for which the “polyreactivity (PSR sort gate)” value is listed as “low polyreactivity”.

With “QVQLVESGGGLVQAGGSLRLSCAASGSTFAYYTMGWYRQAPGKERELVAAISKSGGSTTYADSVKGRFTISRDNAKNTVYLQMNSLKPEETAVYYCAAARKYYGYNYWGQGTQVTVSS”, the “polyreactivity (PSR sort gate)” value is “high polyreactivity”.

As for “QVQLVESGGGLVQAGGSLRLSCAASGSTFDANAMGWYRQAPGKERELVAAISSSGVRTYYADSVKGRFTISRDNAKNTVYLQMNSLKPEDTAVYYCAAGVVISTVDVTYGYWGQGTQVTVSS”, the “polyreactivity (PSR sort gate)” value is given as “low polyreactivity”.

As for “QVQLVESGGGLVQAGGSLRLSCAASGSTFDANAMGWYRQAPGKERELVATISDGGSTNYADSVKGRFTISRDNAKNTVYLQMNSLKPEDTAVYYCAAVKLFLGLGYDYWGQGTQVTVSS”, the “polyreactivity (PSR sort gate)” value is recorded as “low polyreactivity”.

In the case of “QVQLVESGGGLVQAGGSLRLSCAASGSTFDANAMGWYRQAPGKERELVATISDGGSTNYADSVKGRFTISRDNAKNTVYVQMNSLKPEDTAVYYCAAVKLFLGLGYDYWGQGTEVTVSS”, the “polyreactivity (PSR sort gate)” value is “low polyreactivity”.
